The results in this text go back to article PMC7939140.

This assay deals with BG505SOSIP.664 gp140 NFL (native flexible linker version of wild type) (HIV-1 (BG505 isolate, clade A)). Kind of assay: native gel or EMSA.

“BG505SOSIP.664 gp140 NFL (native flexible linker version of wild type) (natural protein)” returned a stoichiometry N of 3.
